Publication PMC7667886, “Who with whom: functional coordination of E2 enzymes by RING E3 ligases during poly‐ubiquitylation” (The EMBO Journal, 2020)

Assays:
Ubc7(wt) = biological target: T1, Ubc7(wt) (yeast, UniProt Q02159 1-165); experiment: SEC; purified Ubc7 and U7BR mixed in a 1:2 ratio, complex purified on Superdex 75; settings: both partners purified
T1 construct: Ubc7, yeast ERAD E2 enzyme, wild type
T1 sequence (looked up): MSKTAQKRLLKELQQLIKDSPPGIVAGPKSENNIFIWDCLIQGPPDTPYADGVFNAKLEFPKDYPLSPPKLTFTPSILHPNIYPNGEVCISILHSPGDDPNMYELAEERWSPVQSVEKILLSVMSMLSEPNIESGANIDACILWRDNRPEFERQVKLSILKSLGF

[1] = biological target: T2, Ubc7 containing only the catalytic cysteine (C89only = C39A/C141S) (yeast, UniProt Q02159 1-165, C39A | C141S); experiment: as above; settings: both partners purified
T2 construct: Ubc7, yeast ERAD E2 enzyme, single-cysteine variant C39A/C141S; also called Ubc7(C89only)
T2 sequence (looked up): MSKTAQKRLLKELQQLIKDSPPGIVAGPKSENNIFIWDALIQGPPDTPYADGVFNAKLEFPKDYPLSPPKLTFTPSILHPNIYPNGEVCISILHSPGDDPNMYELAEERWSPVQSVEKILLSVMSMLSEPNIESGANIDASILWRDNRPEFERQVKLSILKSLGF

- binding result (Ubc7(wt)): binds
- binding result [1]: binds
B1: U7BR domain of Cue1 (aa 150–203) (domain or fragment, yeast, UniProt P38428 150-203, looked up)
chain: NLLDKFHVDLNEDMSNLSFKDLDIEERKRLLVWQARKNLETKLQSDKDLQSLLT
notes: Treated on Ni-NTA with thrombin and GST-hSENP1, then washed and eluted with imidazole; source: E. coli BL21/DE3, purified (Ni-NTA, incubation with thrombin and GST-hSENP1, imidazole elution, Superdex 75)
